B1: peptide HD2 (from tick evasin EVA4) / CCL19 (biotinylated, synthetic) (parent)
chain 1: EEDDYTAYAPLTCYFT
chain 2: GTNDAEDCCLSVTQKPIPGYIVRNFHYLLIKDGCRVPAVVFTTLRGRQLCAPPDQPWVERIIQRLQRTSAKMKRRSS
B2: peptide HD2 (from tick evasin EVA4) / CCL22 (biotinylated, synthetic) (parent)
chain 1: EEDDYTAYAPLTCYFT
chain 2: GPYGANMEDSVCCRDYVRYRLPLRVVKHFYWTSDSCPRPGVVLLTFRDKEICADPRVPWVKMILNKLSQ

Variants of: B1
Details: with CCL19 (biotinylated, synthetic); scale: log2

enrichment, by site and new letter:
chain 1 Y8: D -6.51 | C -8.65 | K -5.04 | A -7.75 | G -7.68 | I -8.35 | R -7.16 | E -5.16 | P -6.84 | N -7.1 | T -7.46
chain 1 Y5: Q -4.33 | R -6.02 | G -6.08 | V -8.24 | P -5.7 | E -2.46 | A -6.04 | K -4.57
chain 1 P10: H -6.93 | N -6.99 | Q -5.36 | I -7.41 | K -5.94 | A -7.68 | C -8.69 | E -6.87 | S -8.17 | D -7.38 | R -8.05
chain 1 F15: N -5.7 | I -5.23
chain 1 A9: G -7.67 | H -7.18 | Q -6.19 | K -5.6 | D -7.2
chain 1 E2: H -6.61 | K -4.12 | Q -3.87 | P -6.02
chain 1 Y14: C -7.29 | D -6.5 | Q -7.02 | S -8.64 | N -5.87 | T -7.91 | E -7.73
chain 1 C13: Q -8.35 | I -7.15 | F -7.6 | K -8.09 | G -9.4 | E -8.9 | R -9.52 | M -8.49 | Y -7.72 | V -10.3 | W -8.62 | T -8.2 | H -7.62 | A -9.6
chain 1 T16: P -6.44
chain 1 D3: K -4.33 | C -8.87 | H -5.94 | T -6.58 | I -8.83 | R -6.43 | M -6.81 | Q -3.96 | A -6

Variants of: B2
Details: with CCL22 (biotinylated, synthetic); scale: log2

enrichment: each site, then its substitutions
chain 1 A9: D -8.23 | C -10.1 | I -9.99 | P -7.8
chain 1 P10: H -7.95 | A -8.71 | Q -6.39 | R -9.08 | V -10.4 | M -8.5 | K -6.96 | T -7.86 | N -8.02 | S -9.19 | I -8.44 | C -9.72
chain 1 Y8: H -7.57 | Q -6.36 | R -8.18 | E -6.18 | N -8.13 | K -6.07 | P -7.86 | T -8.48 | G -8.71 | M -8.49 | I -9.38
chain 1 Y5: Q -5.36 | K -5.6 | P -6.73 | G -7.11 | R -7.05
chain 1 E2: C -10 | R -7.13
chain 1 A7: C -9.84
chain 1 C13: R -10.5 | Q -9.37 | K -9.12
chain 1 D4: K -6.88 | R -7.09 | G -6.22 | T -7.88 | H -7.77 | C -9.24
chain 1 D3: Q -4.99 | C -9.89 | R -7.45
chain 1 E1: C -9.75

— PMC11969024, “Development of chemokine network inhibitors using combinatorial saturation mutagenesis” (Communications Biology, 2025)
